According to patent US20220409512A1, “ORAL CARE COMPOSITIONS FOR GUM HEALTH” (The Procter & Gamble Company, priority 2020, published 2022):

What was measured:
COL1A2 = experiment: Compound Screening on Skin Dermis, collagen gene expression (microarray); assay type: in vivo, human; details: dorsal forearm twice daily, four weeks, retinol at 0.2%, Pal-KTTKS at 100 ppm, vs vehicle, p-value in brackets
Description: (§1) To screen compounds, 30 to 40 female subjects with Fitzpatrick skin types I-III, aged 60-70. At Baseline, each subject was assigned to test each treatment. The products were applied to the dorsal forearm twice daily. Topical treatment with a minimally efficacious moisturizer was used as the vehicle for each test compound and as the negative control.
(§2) After four weeks of treatment, one 4-mm punch biopsy was taken from each treated site. The dermis was separated and snap-frozen in liquid nitrogen and stored at −80° C. until assayed. The frozen tissue was then processed for gene expression analysis. To determine gene expression levels, RNA was extracted, labeled with biotin, hybridized and analyzed using Affymetrix GeneTitan® U219 microarray plates according to the manufacturer's instructions.
(§3) For genomics analysis, microarray sample quality was assessed using principal components analysis and MA-plots. Treatment to negative control comparisons for the microarray data were assessed using ANOVA models fitted separately for each probe set. ANOVA model hypothesis tests were evaluated using the Empirical Bayes method available in the limma R package. A p-value cutoff of 0.05 or less was consider statistically significant.

COL1A1 = experiment: as above; assay type: in vivo, human; details: dorsal forearm twice daily, four weeks, retinol at 0.2%, Pal-KTTKS at 100 ppm, vs vehicle, p-value in brackets
Description: as §1, §2, §3

[1] = system: Primary Human Gingival Fibroblasts; experiment: In-Vitro Human Gingival Fibroblasts Soluble Collagen Assay; assay type: cell-based; details: 72 hours
Protocol: Stage 1: Culturing Primary Human Gingival Fibroblasts (“HGF”): Primary Human Gingival Fibroblasts (“HGF”) were collected from tooth extraction patients and washed with 5 mL of PBS (phosphate buffered saline). The tissues were chopped into small pieces and placed into 15 mL centrifuge tube. The samples were digested with equal amounts of 1 mL 8% dispase and 1 mL 6% collagenase for 1 hr at 37° C., during which time the samples need to be shaken every 15 minutes. Once the digestion process was complete, the tube was centrifuged at 1100 r.p.m. for 6 minutes at room temperature. After centrifugation, a pellet of cells was formed in the bottom of the tube separating them from the supernatant solution. […] The petri dish with cells were placed in the incubator at 37° C. with 5% CO2 for about 10 days. The petri dish was checked for changes in medium color every two days. Fresh culture medium was replaced if changes in medium color occurred.
It was occasionally necessary to tap the petri dish to remove any sticky cells from the petri dish surface. At least 1 mL of fresh MEM culture medium was added to inactivate the trypsin and the cells are collected into a 15 mL centrifuge tube. The tube was then centrifuged at 1100 r.p.m. for 6 minutes at room temperature. […] Petri dishes were each placed with 1 mL cell suspension and 9 mL fresh MEM culture medium in the incubator at 37° C. with 5% CO2 for about 3-5 days until 80-90% cell monolayer coverage on the petri dishes was observed. […] 1 mL cell suspension and 1 mL fresh MEM culture medium were respectively added into each well of a 6-well plate. The cells were further washed with 2 mL PBS to remove any suspended cells until no suspended cells are visible. 2 mL culture medium, or 2 mL culture medium containing 1% Comparative Compositions or 2 mL culture medium containing 1% Inventive Compositions were added to the wells. Cells were maintained in the incubator at 37° C. with 5% CO2 for 72 hours.
After treatment, cells were washed two times with chilled PBS and homogenized with 6M urea. The cell homogenates were centrifuged at 15,000 r.p.m. for 15 min. 100 μL of the supernatant was mixed with 1 mL of Sircol Dye Reagent for 30 minutes. During this time period, a collagen-dye complex formed and precipitated out from the soluble unbound dye. The tubes were transferred to a microcentrifuge and spun at 12,000 r.p.m. for 10 minutes. The tubes were carefully inverted and drained. 750 μL ice-cold Acid-Salt Wash Reagent was gently added to the collagen-dye pellet to remove unbound dye from the surface of the pellet and the inside surface of the microcentrifuge tube. The tube was then centrifuged at 12,000 r.p.m. for 10 minutes. […]

Substance | COL1A2 LFC (Log base 2 of the average Fold Change) (COL1A2) | COL1A1 LFC (Log base 2 of the average Fold Change) (COL1A1) | Collagen Productivity (Collagen/Cell) ([1]; Table 5, 1% composition in culture medium, TGF-B 5 ppm) | Collagen Productivity (Collagen/Cell) ([1]; Table 6, 1:100 dilution, TGF-B 5 ppm) | Collagen Productivity (Collagen/Cell) ([1]; Table 7, 1:100 dilution, TGF-B 5 ppm) | Collagen Productivity (Collagen/Cell) ([1]; Table 9, 1:100 dilution, TGF-b 5 ppm)
palmitoyl-lys-thr-thr-lys-ser [Pal-KTTKS] | −0.048 (0.91) | −0.15 (0.44) | – | – | – | –
TGF-B | – | – | 5.17 | 4.86 | 4.86 | 5.17
